Literature values as cited in article doi:10.1101/2025.11.30.690581.

Legend:
Lys92 = Lys92 (UniProt position 174, RGLAYKYADGK); test: stability; conditions: apparent pKa of the native-state ensemble in the reference Δ+PHS background
Lys66 = Lys66 (UniProt position 148, FTKKMKENAKK); test: stability; conditions: apparent pKa of the native-state ensemble in the reference Δ+PHS background

| Substance | pKa (Lys92) | pKa (Lys66) |
| --- | --- | --- |
| Staphylococcal nuclease Δ+PHS I92K (reference protein with Lys-92) (Staphylococcus aureus; G50F;V51N;P117G;H124L;S128A;del44-49;I92K) | 5.2 |  |
| Staphylococcal nuclease Δ+PHS V66K (reference protein with Lys-66) (Staphylococcus aureus; G50F;V51N;P117G;H124L;S128A;del44-49;V66K) |  | 5.7 |
